Assay results: the supplement of paper PMC9112550, “Optimization of the antimicrobial peptide Bac7 by deep mutational scanning” (BMC Biology, 2022)

test system: Escherichia coli TOP10; assay: shrunken log2 fold change of peptide-encoding DNA abundance (4.5 h post-induction vs induction); higher = less antimicrobial activity (less host growth inhibition); conditions: time post-induction: 4.5 h; library: site-saturation at positions 5, 18, 19, 20
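Further: peptides expressed intracellularly from a pBAD plasmid library in pooled LB shake-flask culture, induced with 0.3% L-arabinose, DNA abundance read by NGS, three biological replicates, DESeq2 with apeglm shrinkage.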

Row | Sequence | shrunken log2 fold change
1 | RRIRGRPPRLPRPRPRPFKRPRP | 0.301
2 | RRIRGRPPRLPRPRPRPFLCPRP | 0.231
3 | RRIRGRPPRLPRPRPRPFNFPRP | 0.0755
4 | RRIRGRPPRLPRPRPRPFNLPRP | -0.643
5 | RRIRGRPPRLPRPRPRPFNNPRP | -0.206
6 | RRIRGRPPRLPRPRPRPFPDPRP | 0.0778
7 | RRIRGRPPRLPRPRPRPFPTPRP | 0.63
8 | RRIRGRPPRLPRPRPRPFQGPRP | -0.0101
9 | RRIRGRPPRLPRPRPRPFQTPRP | 0.013
10 | RRIRGRPPRLPRPRPRPFQWPRP | -0.0859
11 | RRIRGRPPRLPRPRPRPFRSPRP | -0.599
12 | RRIRGRPPRLPRPRPRPFSNPRP | 0.064
13 | RRIRGRPPRLPRPRPRPFTLPRP | -0.109
14 | RRIRGRPPRLPRPRPRPFVMPRP | -0.0182
15 | RRIRGRPPRLPRPRPRPFVWPRP | 0.278
16 | RRIRGRPPRLPRPRPRPFVYPRP | 0.077
17 | RRIRGRPPRLPRPRPRPFWEPRP | 0.577
18 | RRIRGRPPRLPRPRPRPFWMPRP | 0.103
19 | RRIRGRPPRLPRPRPRPFWVPRP | 0.15
20 | RRIRGRPPRLPRPRPRPFYKPRP | -0.0686
21 | RRIRGRPPRLPRPRPRPGAKPRP | 0.924
22 | RRIRGRPPRLPRPRPRPGCEPRP | 2.03
23 | RRIRGRPPRLPRPRPRPGCWPRP | 1.39
24 | RRIRGRPPRLPRPRPRPGDKPRP | 0.425
25 | RRIRGRPPRLPRPRPRPGEHPRP | 0.587

Row | Sequence | shrunken log2 fold change
26 | RRIRGRPPRLPRPRPRPGFDPRP | 0.97
27 | RRIRGRPPRLPRPRPRPGFMPRP | 0.488
28 | RRIRGRPPRLPRPRPRPGFWPRP | 0.581
29 | RRIRGRPPRLPRPRPRPGGQPRP | 0.672
30 | RRIRGRPPRLPRPRPRPGHFPRP | -0.0383
31 | RRIRGRPPRLPRPRPRPGHLPRP | 0.0503
32 | RRIRGRPPRLPRPRPRPGIHPRP | 0.251
33 | RRIRGRPPRLPRPRPRPGKPPRP | 0.516
34 | RRIRGRPPRLPRPRPRPGLRPRP | 0.875
35 | RRIRGRPPRLPRPRPRPGLWPRP | 1.03
36 | RRIRGRPPRLPRPRPRPGMWPRP | 0.78
37 | RRIRGRPPRLPRPRPRPGNIPRP | -0.104
38 | RRIRGRPPRLPRPRPRPGPGPRP | 1.65
39 | RRIRGRPPRLPRPRPRPGQQPRP | 0.0088
40 | RRIRGRPPRLPRPRPRPGRAPRP | 0.84
41 | RRIRGRPPRLPRPRPRPGRCPRP | 1.09
42 | RRIRGRPPRLPRPRPRPGSVPRP | 0.484
43 | RRIRGRPPRLPRPRPRPGTEPRP | 0.731
44 | RRIRGRPPRLPRPRPRPGVFPRP | 0.465
45 | RRIRGRPPRLPRPRPRPGVGPRP | 1.11
46 | RRIRGRPPRLPRPRPRPGVHPRP | 0.597
47 | RRIRGRPPRLPRPRPRPGVMPRP | 1.05
48 | RRIRGRPPRLPRPRPRPGWEPRP | 0.506
49 | RRIRGRPPRLPRPRPRPGYPPRP | 0.115
50 | RRIRGRPPRLPRPRPRPGYYPRP | -0.301

Row | Sequence | shrunken log2 fold change
51 | RRIRGRPPRLPRPRPRPHAQPRP | 0.868
52 | RRIRGRPPRLPRPRPRPHCGPRP | -0.0798
53 | RRIRGRPPRLPRPRPRPHCPPRP | 0.084
54 | RRIRGRPPRLPRPRPRPHDQPRP | 0.62
55 | RRIRGRPPRLPRPRPRPHFVPRP | 0.466
56 | RRIRGRPPRLPRPRPRPHFWPRP | 0.428
57 | RRIRGRPPRLPRPRPRPHIQPRP | 0.192
58 | RRIRGRPPRLPRPRPRPHKCPRP | -0.111
59 | RRIRGRPPRLPRPRPRPHLEPRP | 0.381
60 | RRIRGRPPRLPRPRPRPHLMPRP | -0.0148
61 | RRIRGRPPRLPRPRPRPHNPPRP | -0.0429
62 | RRIRGRPPRLPRPRPRPHNTPRP | -0.277
63 | RRIRGRPPRLPRPRPRPHPDPRP | 0.502
64 | RRIRGRPPRLPRPRPRPHPIPRP | -0.0927
65 | RRIRGRPPRLPRPRPRPHPSPRP | 0.445
66 | RRIRGRPPRLPRPRPRPHPVPRP | 0.412
67 | RRIRGRPPRLPRPRPRPHREPRP | 0.121
68 | RRIRGRPPRLPRPRPRPHRYPRP | 0.0948
69 | RRIRGRPPRLPRPRPRPHTQPRP | 0.0483
70 | RRIRGRPPRLPRPRPRPHTTPRP | 0.333
71 | RRIRGRPPRLPRPRPRPHVSPRP | 0.396
72 | RRIRGRPPRLPRPRPRPHWDPRP | 0.645
73 | RRIRGRPPRLPRPRPRPIAIPRP | 0.216
74 | RRIRGRPPRLPRPRPRPIDTPRP | 0.306
75 | RRIRGRPPRLPRPRPRPIEDPRP | 0.0783

Row | Sequence | shrunken log2 fold change
76 | RRIRGRPPRLPRPRPRPIEQPRP | 0.109
77 | RRIRGRPPRLPRPRPRPIIEPRP | 0.863
78 | RRIRGRPPRLPRPRPRPIIYPRP | 0.0582
79 | RRIRGRPPRLPRPRPRPIKMPRP | 0.441
80 | RRIRGRPPRLPRPRPRPIMKPRP | 0.227
81 | RRIRGRPPRLPRPRPRPIMYPRP | 0.0639
82 | RRIRGRPPRLPRPRPRPINCPRP | -0.0247
83 | RRIRGRPPRLPRPRPRPINYPRP | 0.000824
84 | RRIRGRPPRLPRPRPRPIQAPRP | 1.16
85 | RRIRGRPPRLPRPRPRPIQLPRP | 0.043
86 | RRIRGRPPRLPRPRPRPISVPRP | -0.0351
87 | RRIRGRPPRLPRPRPRPITEPRP | 0.000184
88 | RRIRGRPPRLPRPRPRPITQPRP | -0.0614
89 | RRIRGRPPRLPRPRPRPITYPRP | 0.265
90 | RRIRGRPPRLPRPRPRPIWNPRP | 0.37
91 | RRIRGRPPRLPRPRPRPIWRPRP | 0.744
92 | RRIRGRPPRLPRPRPRPIYDPRP | -0.259
93 | RRIRGRPPRLPRPRPRPIYNPRP | -0.185
94 | RRIRGRPPRLPRPRPRPKADPRP | 1.29
95 | RRIRGRPPRLPRPRPRPKAGPRP | 1.17
96 | RRIRGRPPRLPRPRPRPKCPPRP | 0.625
97 | RRIRGRPPRLPRPRPRPKCSPRP | 0.704
98 | RRIRGRPPRLPRPRPRPKDNPRP | 0.578
99 | RRIRGRPPRLPRPRPRPKGAPRP | 1.06
100 | RRIRGRPPRLPRPRPRPKGFPRP | -0.0463

Row | Sequence | shrunken log2 fold change
101 | RRIRGRPPRLPRPRPRPKIVPRP | 0.278
102 | RRIRGRPPRLPRPRPRPKKFPRP | 0.582
103 | RRIRGRPPRLPRPRPRPKMTPRP | 1.83
104 | RRIRGRPPRLPRPRPRPKNEPRP | 0.713
105 | RRIRGRPPRLPRPRPRPKNPPRP | 0.489
106 | RRIRGRPPRLPRPRPRPKPFPRP | 0.601
107 | RRIRGRPPRLPRPRPRPKQKPRP | -0.0523
108 | RRIRGRPPRLPRPRPRPKQLPRP | -0.00285
109 | RRIRGRPPRLPRPRPRPKQQPRP | 0.228
110 | RRIRGRPPRLPRPRPRPKSPPRP | 0.677
111 | RRIRGRPPRLPRPRPRPKTQPRP | 0.929
112 | RRIRGRPPRLPRPRPRPKWRPRP | 0.795
113 | RRIRGRPPRLPRPRPRPKYYPRP | 0.0864
114 | RRIRGRPPRLPRPRPRPLAQPRP | 0.888
115 | RRIRGRPPRLPRPRPRPLCDPRP | 0.778
116 | RRIRGRPPRLPRPRPRPLDVPRP | 0.326
117 | RRIRGRPPRLPRPRPRPLEFPRP | 0.319
118 | RRIRGRPPRLPRPRPRPLENPRP | 0.766
119 | RRIRGRPPRLPRPRPRPLFGPRP | 0.584
120 | RRIRGRPPRLPRPRPRPLHWPRP | 0.627
121 | RRIRGRPPRLPRPRPRPLLCPRP | 1.17
122 | RRIRGRPPRLPRPRPRPLLNPRP | 0.76
123 | RRIRGRPPRLPRPRPRPLMIPRP | 0.139
124 | RRIRGRPPRLPRPRPRPLMLPRP | 0.462
125 | RRIRGRPPRLPRPRPRPLMRPRP | 1.61

Row | Sequence | shrunken log2 fold change
126 | RRIRGRPPRLPRPRPRPLPFPRP | -0.0338
127 | RRIRGRPPRLPRPRPRPLPKPRP | 0.943
128 | RRIRGRPPRLPRPRPRPLPLPRP | 0.627
129 | RRIRGRPPRLPRPRPRPLQDPRP | 0.98
130 | RRIRGRPPRLPRPRPRPLQHPRP | 1.18
131 | RRIRGRPPRLPRPRPRPLQRPRP | 0.762
132 | RRIRGRPPRLPRPRPRPLRQPRP | 0.62
133 | RRIRGRPPRLPRPRPRPLRVPRP | 1
134 | RRIRGRPPRLPRPRPRPLSFPRP | 0.121
135 | RRIRGRPPRLPRPRPRPLTHPRP | 0.168
136 | RRIRGRPPRLPRPRPRPLWEPRP | 1.51
137 | RRIRGRPPRLPRPRPRPLWRPRP | 0.625
138 | RRIRGRPPRLPRPRPRPMAIPRP | 0.0503
139 | RRIRGRPPRLPRPRPRPMCEPRP | 2.46
140 | RRIRGRPPRLPRPRPRPMCGPRP | 0.645
141 | RRIRGRPPRLPRPRPRPMCQPRP | 0.62
142 | RRIRGRPPRLPRPRPRPMDIPRP | 0.0445
143 | RRIRGRPPRLPRPRPRPMDLPRP | 0.241
144 | RRIRGRPPRLPRPRPRPMEFPRP | 0.0673
145 | RRIRGRPPRLPRPRPRPMFCPRP | 0.178
146 | RRIRGRPPRLPRPRPRPMFKPRP | 0.0694
147 | RRIRGRPPRLPRPRPRPMFNPRP | -0.192
148 | RRIRGRPPRLPRPRPRPMFRPRP | 0.303
149 | RRIRGRPPRLPRPRPRPMGLPRP | -0.0139
150 | RRIRGRPPRLPRPRPRPMHHPRP | 0.533
